Laboratory results from article PMC2972695.

B1: BMP4 EMSA oligonucleotide (34 bp conserved promoter motif) (dsDNA)
DNA 1: GGGTCTCATTATATTCAAATATTCCTTTTAGGAGCCA
DNA 2: GGGTGGCTCCTAAAAGGAATATTTGAATATAATGAGA
B2: BMP4 oligonucleotide, unlabelled homologous competitor (dsDNA)
DNA 1: GGGTCTCATTATATTCAAATATTCCTTTTAGGAGCCA
DNA 2: GGGTGGCTCCTAAAAGGAATATTTGAATATAATGAGA

How the values were obtained:
GST-SHOX2 [1] = target: T1, GST-SHOX2 (UniProt O60902 1-331); assay: EMSA
GST-SHOX2 [2] = target: T1, GST-SHOX2; assay: competition

T1 sequence (O60902 whole entry): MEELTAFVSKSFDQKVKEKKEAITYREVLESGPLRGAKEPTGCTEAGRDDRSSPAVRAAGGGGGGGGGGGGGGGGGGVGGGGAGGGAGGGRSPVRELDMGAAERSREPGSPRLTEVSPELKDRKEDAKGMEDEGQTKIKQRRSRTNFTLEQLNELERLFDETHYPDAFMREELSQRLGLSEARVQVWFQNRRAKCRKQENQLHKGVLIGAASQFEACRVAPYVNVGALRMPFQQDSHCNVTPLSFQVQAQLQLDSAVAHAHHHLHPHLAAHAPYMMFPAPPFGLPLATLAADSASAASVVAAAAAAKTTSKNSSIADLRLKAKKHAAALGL

| Binder | binding result (GST-SHOX2 [1]) | binding result (GST-SHOX2 [2]) |
| --- | --- | --- |
| B1 | binds | – |
| B2 | – | binds |
